From patent publication US12655208 (PARAGON THERAPEUTICS, dated 2026)
Positions count from the first letter of the chain named.

T1: Recombinant Human IL-23 (human, UniProt Q9NPF7 20-189; P29460 23-328)
T1 construct: Recombinant human IL-23; the p40 subunit is added from general knowledge of the heterodimer; also called hIL-23
T1 sequence (looked up) 1: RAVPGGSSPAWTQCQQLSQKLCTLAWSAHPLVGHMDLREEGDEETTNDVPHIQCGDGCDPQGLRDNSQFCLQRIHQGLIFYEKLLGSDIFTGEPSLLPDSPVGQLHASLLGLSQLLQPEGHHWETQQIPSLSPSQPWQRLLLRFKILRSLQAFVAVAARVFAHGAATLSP
T1 sequence (looked up) 2: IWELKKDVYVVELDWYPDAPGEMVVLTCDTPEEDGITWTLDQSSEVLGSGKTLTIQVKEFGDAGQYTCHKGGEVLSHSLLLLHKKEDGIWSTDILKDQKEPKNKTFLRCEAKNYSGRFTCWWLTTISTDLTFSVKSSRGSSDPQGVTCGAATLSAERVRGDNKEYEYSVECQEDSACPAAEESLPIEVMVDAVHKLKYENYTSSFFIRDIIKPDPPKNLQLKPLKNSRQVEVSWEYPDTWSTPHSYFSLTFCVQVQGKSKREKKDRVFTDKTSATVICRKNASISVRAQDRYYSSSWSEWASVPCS

B1: Reference Antibody 1 (antibody, human IgG1, kappa, L234A L235A, V domains shown)
VH: QVQLVQSGAEVKKPGSSVKVSCKASGYTFTDQTIHWMRQAPGQGLEWIGYIYPRDDSPKYNENFKGKVTITADKSTSTAYMELSSLRSEDTAVYYCAIPDRSGYAWFIYWGQGTLVTVSS
VL: DIQMTQSPSSLSASVGDRVTITCKASRDVAIAVAWYQQKPGKVPKLLIYWASTRHTGVPSRFSGSGSRTDFTLTISSLQPEDVADYFCHQYSSYPFTFGSGTKLEIKR
notes: Human IgG1 with LALA; also called parental anti-human IL-23p19 antibody
B2: Clone MAb001 (antibody, human IgG1, kappa, L234A L235A, V domains shown)
VH: B1 VH with D31T, I34L, D56G, P58T, I108Q, Y109H
VL: B1 VL
B3: Clone MAb004 (antibody, human IgG1, V domains shown)
VH: B1 VH with D31A, I34M, D56G, P58T, Y109V
VL: EIVMTQSPATLSVSPGERATLSCKASRDVAIAVAWYQQKPGQAPRLLLFWASTRHTGIPARFSGSGSRTEFTLTISSLQSEDFAVYYCHQYSSYPFTFGGGTKVEIK
notes: Tested in full antibody format; The printed constant part is human IgG1 with LALA/YTE
B4: Clone MAb003 (antibody, V domains shown)
VH: B1 VH with D31S, I34M, S57Y, E62D, Y109H
VL: B1 VL
B5: Clone MAb002 (antibody, human IgG1, kappa, L234A L235A, V domains shown)
VH: EVQLLESGGGLVQPGGSLRLSCAASGYTFTDQTIHWVRQAPGKGLEWIGYIYPRDDSPKYNENFKGRATLSADNSKNTAYLQMNSLRAEDTAVYYCAIPDRSGYAWFIYWGQGTTVTVSS
VL: EIVMTQSPATLSVSPGERATLSCKASRDVAIAVAWYQQKPGQAPRLLLFWASTRHTGIPARFSGSGSRTEFTLTISSLQSEDFAVYYCHQYSSYPFTFGGGTKVEIKR
notes: Described as an extended half-life humanized IgG1 monoclonal antibody

What follows are binders tested against T1, Recombinant Human IL-23 (assay: SPR (Biacore 8K), mAb captured on anti-human IgG, hIL-23 as analyte, 25 °C).
Procedure: Binding affinities (K_D) of antibodies to human IL-23 (generated as described in Examples 1-3) were determined through surface plasmon resonance (SPR) using a BIA-CORE™ 8K SPR system (Cytiva). […] Anti-IL23 mAb constructs (diluted to 2 µg/mL) were captured onto flow cell 2 (active) for 60 sec at a flow rate of 10 µL/min. Recombinant Human IL-23 was prepared at concentrations of 0, 1.23, 3.7, 11.11, 33.33, 100 nM and injected over flow cell 1 (reference) and flow cell 2 (active) for 180 sec at a flow rate of 50 µL/min. Samples were injected in a multi-cycle manner over freshly captured mAb, by regenerating the capture surfaces with injection of 10 mM glycine, pH 1.5 for 30 sec at a flow rate of 30 µL/min. A 1:1 kinetic binding model was utilized to determine the apparent association (ka) and dissociation rate constants (kd). Their ratio provides the apparent equilibrium dissociation constant or affinity constant (K_D=kd/ka).

Binder	koff	kon
B1	< 1e-06 s⁻¹	167000 M⁻¹ s⁻¹
B2	< 1e-06 s⁻¹	151000 M⁻¹ s⁻¹
B3	< 1e-06 s⁻¹	247000 M⁻¹ s⁻¹
B4	< 1e-06 s⁻¹	164000 M⁻¹ s⁻¹
B5	< 1e-06 s⁻¹	266000 M⁻¹ s⁻¹

The binders below were run against T1, Recombinant Human IL-23 (assay: cell-based or functional assay).

Binder	Relative IC50, inhibition of IL-23-induced STAT3 activation (luciferase reporter, HEK 293F IL-23R+/IL-12Rβ1+)
B1	1 relative to Reference Antibody 1
B2	0.612 relative to Reference Antibody 1
B3	0.409 relative to Reference Antibody 1
B4	0.868 relative to Reference Antibody 1
B5	0.64 relative to Reference Antibody 1

Molecular target: T1, Recombinant Human IL-23
Assay: cell-based or functional assay
Remark: another data set of the same source

Binder	IC50, inhibition of STAT3 activity and phosphorylation
B5	< 1 nM

Molecular target: T1, Recombinant Human IL-23
Assay: cell-based or functional assay
Remark: another data set of the same source

Binder	Relative IC50, inhibition of IL-23-induced phosphorylation of STAT3 in DB cells (pSTAT3 ELISA)
B1	1 relative to Reference Antibody 1
B2	0.573 relative to Reference Antibody 1
B4	0.799 relative to Reference Antibody 1
